Experimental data published in patent publication US20250376519A1 (JIANGSU HENGRUI PHARMACEUTICALS, published 2025).

How the values were obtained:
[1] = target: T1, mouse DLL3 (KACTUS, DLL-MM103) (mouse, UniProt O88516 33-490, limits assumed); assay: SPR Biacore 8K, Ab captured on Protein A
T1 construct: Bought
T1 sequence: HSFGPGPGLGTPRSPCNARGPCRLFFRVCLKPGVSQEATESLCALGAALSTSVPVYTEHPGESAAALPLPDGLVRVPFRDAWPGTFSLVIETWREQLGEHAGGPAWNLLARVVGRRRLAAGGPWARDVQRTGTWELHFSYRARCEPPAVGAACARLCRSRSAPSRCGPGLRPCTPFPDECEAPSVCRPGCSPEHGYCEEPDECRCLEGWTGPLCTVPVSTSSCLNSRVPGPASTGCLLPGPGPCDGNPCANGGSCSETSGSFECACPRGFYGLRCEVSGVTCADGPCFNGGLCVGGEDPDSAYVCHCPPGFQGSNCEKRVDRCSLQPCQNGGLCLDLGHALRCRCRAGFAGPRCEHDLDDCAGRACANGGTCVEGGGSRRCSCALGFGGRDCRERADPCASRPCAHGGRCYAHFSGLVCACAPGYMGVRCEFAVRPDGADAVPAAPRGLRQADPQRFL
In short: (§1)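 Antibodies captured on a Protein A chip for 18 s; DLL3 or CD3D&3E antigen flowed 180 s, then 600 s dissociation, with real-time detection. Regeneration used 10 mM glycine-HCl pH 1.5 between cycles. Kinetics were obtained by 1:1 model fitting.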

[2] = target: T2, cynomolgus monkey DLL3 (KACTUS, DLL-RM103) (cynomolgus monkey, UniProt Q9NYJ7 27-492 (human entry), limits assumed); assay: SPR Biacore 8K, Ab captured on Protein A
T2 construct: Bought
T2 chain: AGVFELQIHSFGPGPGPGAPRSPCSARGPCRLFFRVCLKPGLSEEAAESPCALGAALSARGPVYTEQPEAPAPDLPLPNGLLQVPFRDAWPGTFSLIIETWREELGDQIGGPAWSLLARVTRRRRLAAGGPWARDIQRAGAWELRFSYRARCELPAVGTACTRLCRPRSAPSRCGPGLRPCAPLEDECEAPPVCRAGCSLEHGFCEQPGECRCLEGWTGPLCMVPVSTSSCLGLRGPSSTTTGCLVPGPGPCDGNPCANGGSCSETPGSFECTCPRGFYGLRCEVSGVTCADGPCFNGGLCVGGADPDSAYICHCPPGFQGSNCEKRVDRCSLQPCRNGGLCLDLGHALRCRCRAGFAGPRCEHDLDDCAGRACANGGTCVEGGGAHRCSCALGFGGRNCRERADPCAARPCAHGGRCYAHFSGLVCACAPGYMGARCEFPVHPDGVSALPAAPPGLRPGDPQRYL
In short: as §1

[3] = target: T3, monkey CD3D&3E (ACRO, CDD-C52W4) (cynomolgus monkey, UniProt Q95LI8 22-105; Q95LI5 22-117); assay: SPR Biacore 8K, Ab captured on Protein A
T3 construct: bought CD3 delta/epsilon protein; also called cynomolgus monkey CD3
T3 sequence (Q95LI8 22-105, chain 1 of 2): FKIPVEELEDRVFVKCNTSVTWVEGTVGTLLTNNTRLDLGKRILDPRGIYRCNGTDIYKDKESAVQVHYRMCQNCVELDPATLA
T3 sequence (Q95LI5 22-117, chain 2 of 2): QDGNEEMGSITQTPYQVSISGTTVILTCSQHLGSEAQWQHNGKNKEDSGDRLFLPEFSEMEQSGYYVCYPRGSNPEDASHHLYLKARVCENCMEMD
In short: as §1

[4] = target: T4, human DLL3 (ACRO, DLL3-H52H4) (human, UniProt Q9NYJ7 27-492); assay: SPR Biacore 8K, Ab captured on Protein A
T4 construct: Bought
T4 sequence: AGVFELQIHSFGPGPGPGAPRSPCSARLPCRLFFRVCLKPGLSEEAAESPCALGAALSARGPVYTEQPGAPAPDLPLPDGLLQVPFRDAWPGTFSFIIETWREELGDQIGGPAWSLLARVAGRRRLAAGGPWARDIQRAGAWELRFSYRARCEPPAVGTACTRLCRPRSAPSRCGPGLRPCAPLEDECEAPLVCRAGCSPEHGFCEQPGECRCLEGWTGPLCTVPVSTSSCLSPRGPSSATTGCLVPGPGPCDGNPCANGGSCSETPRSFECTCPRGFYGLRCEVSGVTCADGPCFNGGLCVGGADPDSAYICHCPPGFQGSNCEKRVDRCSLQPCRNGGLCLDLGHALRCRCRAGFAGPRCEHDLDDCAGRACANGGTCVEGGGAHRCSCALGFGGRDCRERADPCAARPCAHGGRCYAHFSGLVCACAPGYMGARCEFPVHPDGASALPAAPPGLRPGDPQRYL
In short: as §1

[5] = target: T5, hDLL3 (ECD)-strep twin, biotinylated (human, UniProt Q9NYJ7 27-492, biotinylated); assay: ELISA, biotinylated antigen on streptavidin, OD450
T5 construct: The entry carries a signal peptide (marked only by a dotted line); also called Biotinylated DLL3 antigen; human DLL3 protein
Experimental: Streptavidin (abcam, ab136200, 1 μg/mL) was plated at 100 μL/well, and the plates were incubated overnight at 4° C. The plates were washed 3 times with 250 μL of PBST solution (PBS containing 0.1% Tween 20) per well. The plates were blocked with 250 μL of 5% milk per well at 37° C. for 2 h. The plates were washed 3 times with 250 μL of PBST solution per well. Biotinylated DLL3 antigen (1 μg/mL) (SEQ ID NO: 9) was added, and the plates were incubated at 37° C. for 1 h. The plates were washed 3 times with 250 μL of PBST solution per well. Antibodies (maximum concentration 400 nM, serially diluted 4-fold) were formulated, and incubation was performed at 37° C. for 1 h. The plates were washed 6 times with 250 μL of PBST solution per well. […] The plates were washed 6 times with 250 μL of PBST solution per well. TMB (KPL, 5120-0077) substrate solution was added at 100 μL/well, and color development was performed at room temperature for 5-10 min. 1 M H₂SO₄ was added at 100 μL/well to stop the color development, and microplate reader (Molecular Devices, VERSA max) readings at 450 nm were taken.

B1: hu110-S107E-hot Ig (bispecific antibody)
light 1: NIVMTQSPKSLAVSLGERATINCKASENVGIFVSWYQQKPGQSPKLLIYGASNRYTGVPDRFSGSGSATDFTLTISSLQAEDVADYYCGQSHSYPLTFGQGTKLEIKGGGGSSGAPRFLTRPKASVVSVGKDATLSCQIVGNPFPQVSWEKDKQPVTAGVRFRLAQDGDLYRLKILDLQLSDSGQYVCRARNAHGEAFACLGLQVDAEA
heavy 1: EVQLVQSGAEVKKPGASVKVSCKTSGYTFTDYYMNWVRQAPGQSLEWMGIINPYQGGTSYTQKFKGRVTITVDKSASTAYMELSSLRSEDTAVYYCARHFYDSSYLTYSTMDYWGQGTTVTVSSGGGGSGIPPKIECLPIDISIDEGKVLTVASAFTGEPTPEVTWSTGGRKIHSQEQGRFHIENTDDSTTLTIKDVQKQDGGLYTLTLRNEFGSDSATVNIHIRSIDKTHTCPPCPAPEAAGGPSVFLFPPKPKDTLMISRTPEVTCVVVDVSHEDPEVKFNWYVDGVEVHNAKTKPREEQYNSTYRVVSVLTVLHQDWLNGKEYKCKVSNKALPAPIEKTISKAKGQPREPQVCTLPPSREEMTKNQVSLSCAVKGFYPSDIAVEWESNGQPENNYKTTPPVLDSDGSFFLVSKLTVDKSRWQQGNVFSCSVMHEALHNHYTQKSLSLSPGK
heavy 2: not shown
light 2: not shown
notes: Format 1 (Hot-Ig, Titin/Obscurin-replaced DLL3 Fab), DLL3 x CD3
- binding result [1]: no binding
- Kd [2]: 0.523 nM
- koff [2]: 6.43e-05 s⁻¹
- kon [2]: 123000 M⁻¹ s⁻¹
- Kd [3]: 39.6 nM
- koff [3]: 0.007 s⁻¹
- kon [3]: 177000 M⁻¹ s⁻¹
- Kd [4]: 0.113 nM
- koff [4]: 2.82e-05 s⁻¹
- kon [4]: 249000 M⁻¹ s⁻¹
- Emax [5]: 0.45

B2: hu110-I2C-hot Ig (bispecific antibody)
light 1: B1 light 1
heavy 1: B1 heavy 1
heavy 2: not shown
light 2: not shown
notes: as for B1
- binding result [1]: no binding
- Kd [2]: 0.616 nM
- Kd [3]: 1.5 nM
- Kd [4]: 0.119 nM
- Emax [5]: 0.48

B3: hu110-I2C-Y body (bispecific antibody)
light: NIVMTQSPKSLAVSLGERATINCKASENVGIFVSWYQQKPGQSPKLLIYGASNRYTGVPDRFSGSGSATDFTLTISSLQAEDVADYYCGQSHSYPLTFGQGTKLEIKRTVAAPSVFIFPPSDEQLKSGTASVVCLLNNFYPREAKVQWKVDNALQSGNSQESVTEQDSKDSTYSLSSTLTLSKADYEKHKVYACEVTHQGLSSPVTKSFNRGEC
heavy: EVQLVQSGAEVKKPGASVKVSCKTSGYTFTDYYMNWVRQAPGQSLEWMGIINPYQGGTSYTQKFKGRVTITVDKSASTAYMELSSLRSEDTAVYYCARHFYDSSYLTYSTMDYWGQGTTVTVSSASTKGPSVFPLAPSSKSTSGGTAALGCLVKDYFPEPVTVSWNSGALTSGVHTFPAVLQSSGLYSLSSVVTVPSSSLGTQTYICNVNHKPSNTKVDKKVEPKSCDKTHTCPPCPAPEAAGGPSVFLFPPKPKDTLMISRTPEVTCVVVDVSHEDPEVKFNWYVDGVEVHNAKTKPREEQYNSTYRVVSVLTVLHQDWLNGKEYKCKVSNKALPAPIEKTISKAKGQPREPQVCTLPPSREEMTKNQVSLSCAVKGFYPSDIAVEWESNGQPENNYKTTPPVLDSDGSFFLVSKLTVDKSRWQQGNVFSCSVMHEALHNHYTQKSLSLSPGK
chain: not shown
notes: Format 2 (Y body: DLL3 Fab-Fc hole + CD3 scFv-Fc knob)
- binding result [1]: no binding
- Kd [2]: 0.762 nM
- Kd [3]: 2.32 nM
- Kd [4]: 0.125 nM
- Emax [5]: 0.48
